Experiment: competitive inhibition, sperm binding to ZP-coated wells
Conditions: glycan lost; control: ZP3(32–178)/ZP4

B1: zona pellucida glycoprotein ZP3: ZP3(32–178)N124D (protein)
parent chain: MGPCSRLFVCFLLWGSTELCSPQPFWDDETERFRPSKPPAVMVECQEAQLVVTVDKDLFGTGKLIRPADLTLGPDNCEPLASADTDGVVRFAVGLHECGNILQVTDNALVYSTFLLHNPRPAGNLSILRTNRAEVPIECHYPRQGNVSSWAIQPTWVPFRTTVFSEEKLVFSLRLMEENWSAEKMTPTFQLGDRAHLQAQVHTGSHVPLRLFVDHCVASLTPDWSTSPYHTIVDFHGCLVDGLTDASSAFKAPRPRPEILQFTVDVFRFANDSRNMIYITCHLKVTPVDRVPDQLNKACSFSKSSNRWSPVEGPTDICRCCSKGRCGISGRSMRLSHREGRPVPRSRRHVTEEADVTVGPLIFLRKMNDRGVEGPTSSPPLVMLGLGLATVMTLTLAAIVLGLTGRLRAASHPVCPVSASQ
In the case of B1, the “other: inhibition of sperm-ZP binding” value is reported as “no change”.

B2: zona pellucida glycoprotein ZP3: ZP3(32–178)N146D (protein)
parent chain: MGPCSRLFVCFLLWGSTELCSPQPFWDDETERFRPSKPPAVMVECQEAQLVVTVDKDLFGTGKLIRPADLTLGPDNCEPLASADTDGVVRFAVGLHECGNILQVTDNALVYSTFLLHNPRPAGNLSILRTNRAEVPIECHYPRQGNVSSWAIQPTWVPFRTTVFSEEKLVFSLRLMEENWSAEKMTPTFQLGDRAHLQAQVHTGSHVPLRLFVDHCVASLTPDWSTSPYHTIVDFHGCLVDGLTDASSAFKAPRPRPEILQFTVDVFRFANDSRNMIYITCHLKVTPVDRVPDQLNKACSFSKSSNRWSPVEGPTDICRCCSKGRCGISGRSMRLSHREGRPVPRSRRHVTEEADVTVGPLIFLRKMNDRGVEGPTSSPPLVMLGLGLATVMTLTLAAIVLGLTGRLRAASHPVCPVSASQ
For B2, the “other: inhibition of sperm-ZP binding” value was “decreases”.

B3: zona pellucida glycoprotein ZP3: ZP3(32–178)N124,146D (protein)
parent chain: MGPCSRLFVCFLLWGSTELCSPQPFWDDETERFRPSKPPAVMVECQEAQLVVTVDKDLFGTGKLIRPADLTLGPDNCEPLASADTDGVVRFAVGLHECGNILQVTDNALVYSTFLLHNPRPAGNLSILRTNRAEVPIECHYPRQGNVSSWAIQPTWVPFRTTVFSEEKLVFSLRLMEENWSAEKMTPTFQLGDRAHLQAQVHTGSHVPLRLFVDHCVASLTPDWSTSPYHTIVDFHGCLVDGLTDASSAFKAPRPRPEILQFTVDVFRFANDSRNMIYITCHLKVTPVDRVPDQLNKACSFSKSSNRWSPVEGPTDICRCCSKGRCGISGRSMRLSHREGRPVPRSRRHVTEEADVTVGPLIFLRKMNDRGVEGPTSSPPLVMLGLGLATVMTLTLAAIVLGLTGRLRAASHPVCPVSASQ
In the case of B3, the “other: inhibition of sperm-ZP binding” value is reported as “decreases”.

— article PMC4693281
